Patent publication US20230212304A1

Assays:
[1] = molecular target: cynomolgus monkey CTLA4-his protein (Acro biosystems, Cat#CT4-C5227) (cynomolgus monkey) (UniProt G7PL88); test: SPR, Biacore; antibody captured on anti-human IgG CM5 chip, CTLA4-his as analyte
[2] = molecular target: cynomolgus monkey CTLA4-his protein (Acro biosystems, Cat#CT4-C5227) (cynomolgus monkey) (UniProt G7PL88); test: SPR, Biacore T200; benchmark on Protein G chip, CTLA4-his as analyte

cynomolgus monkey CTLA4-his protein (Acro biosystems, Cat#CT4-C5227) (cynomolgus monkey), sequence (G7PL88 entry or part of it): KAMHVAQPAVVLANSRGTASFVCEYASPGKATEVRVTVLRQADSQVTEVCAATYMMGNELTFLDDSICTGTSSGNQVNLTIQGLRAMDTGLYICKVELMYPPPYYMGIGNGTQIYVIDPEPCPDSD

Kd [1]: 2.2 nM
Kd [2]: 2.97 nM
Substance: Yervoy® (Bristol-Myers Squibb Co, Cat# NDC: 0003-2327-11) (antibody)
